# In patent US20250179172A1:
# Legend:
# [1] = target: human CD5 (Arg25-Pro372)-His protein (Acro, Cat. No. CD5-H52H5) (human) (UniProt P06127); experiment: ELISA on hCD5-His, antibody 0.001 nM
# [2] = target: murine CD5-His (Sino Biologicals, Cat. No. 50403-M08H) (murine) (UniProt P13379); experiment: ELISA on murine CD5-His, antibody 0.001 nM
# [3] = target: murine CD5-His (Sino Biologicals, Cat. No. 50403-M08H) (murine) (UniProt P13379); experiment: ELISA on murine CD5-His, antibody 1.00 nM
# [4] = target: human CD5 (Arg25-Pro372)-His protein (Acro, Cat. No. CD5-H52H5) (human) (UniProt P06127); experiment: ELISA on hCD5-His, antibody 10 nM
# [5] = target: human CD5, full length, on cells (Jurkat, endogenous; CHO-K1-human CD5, transfected) (human) (UniProt P06127); experiment: FACS on CHO-K1-hCD5-2B2 cells
# [6] = target: murine CD5-His (Sino Biologicals, Cat. No. 50403-M08H) (murine) (UniProt P13379); experiment: ELISA on murine CD5-His, antibody 10.00 nM
# [7] = target: human CD5, full length, on cells (Jurkat, endogenous; CHO-K1-human CD5, transfected) (human) (UniProt P06127); experiment: FACS on CHO-K1-hCD5-2F8 cells
# [8] = target: murine CD5-His (Sino Biologicals, Cat. No. 50403-M08H) (murine) (UniProt P13379); experiment: ELISA on murine CD5-His, antibody 100.00 nM
# [9] = target: human CD5 (Arg25-Pro372)-His protein (Acro, Cat. No. CD5-H52H5) (human) (UniProt P06127); experiment: ELISA on hCD5-His, antibody 0.1 nM
# [10] = target: human CD5, full length, on cells (Jurkat, endogenous; CHO-K1-human CD5, transfected) (human) (UniProt P06127); experiment: FACS on CHO-K1-human CD5 cells
# [11] = target: human CD5, full length, on cells (Jurkat, endogenous; CHO-K1-human CD5, transfected) (human) (UniProt P06127); experiment: FACS on CHO-K1-hCD5-2C6 cells
# [12] = target: human CD5 (Arg25-Pro372)-His protein (Acro, Cat. No. CD5-H52H5) (human) (UniProt P06127); experiment: ELISA on hCD5-His, antibody 0.0001 nM
# [13] = target: murine CD5-His (Sino Biologicals, Cat. No. 50403-M08H) (murine) (UniProt P13379); experiment: ELISA on murine CD5-His, antibody '0.000' nM as printed
# [14] = target: murine CD5-His (Sino Biologicals, Cat. No. 50403-M08H) (murine) (UniProt P13379); experiment: ELISA on murine CD5-His, antibody 0.10 nM
# [15] = target: human CD5, full length, on cells (Jurkat, endogenous; CHO-K1-human CD5, transfected) (human) (UniProt P06127); experiment: FACS on Jurkat cells
# [16] = target: human CD5, full length, on cells (Jurkat, endogenous; CHO-K1-human CD5, transfected) (human) (UniProt P06127); experiment: FACS on CHO-K1-hCD5-2E2 cells
# [17] = target: murine CD5-His (Sino Biologicals, Cat. No. 50403-M08H) (murine) (UniProt P13379); experiment: ELISA on murine CD5-His, antibody 0.01 nM
# [18] = target: human CD5 (Arg25-Pro372)-His protein (Acro, Cat. No. CD5-H52H5) (human) (UniProt P06127); experiment: ELISA on hCD5-His, antibody 1 nM
# [19] = target: human CD5 (Arg25-Pro372)-His protein (Acro, Cat. No. CD5-H52H5) (human) (UniProt P06127); experiment: ELISA on hCD5-His, antibody 0.01 nM
# [20] = target: human CD5 (Arg25-Pro372)-His protein (Acro, Cat. No. CD5-H52H5) (human) (UniProt P06127); experiment: ELISA on hCD5-His, antibody 100 nM
# [21] = target: monkey CD5, full length, on HEK293T cells (monkey); experiment: FACS on HEK293T-monkey CD5 cells
# monkey CD5, full length, on HEK293T cells (monkey), sequence (chain, as listed by the source limits assumed): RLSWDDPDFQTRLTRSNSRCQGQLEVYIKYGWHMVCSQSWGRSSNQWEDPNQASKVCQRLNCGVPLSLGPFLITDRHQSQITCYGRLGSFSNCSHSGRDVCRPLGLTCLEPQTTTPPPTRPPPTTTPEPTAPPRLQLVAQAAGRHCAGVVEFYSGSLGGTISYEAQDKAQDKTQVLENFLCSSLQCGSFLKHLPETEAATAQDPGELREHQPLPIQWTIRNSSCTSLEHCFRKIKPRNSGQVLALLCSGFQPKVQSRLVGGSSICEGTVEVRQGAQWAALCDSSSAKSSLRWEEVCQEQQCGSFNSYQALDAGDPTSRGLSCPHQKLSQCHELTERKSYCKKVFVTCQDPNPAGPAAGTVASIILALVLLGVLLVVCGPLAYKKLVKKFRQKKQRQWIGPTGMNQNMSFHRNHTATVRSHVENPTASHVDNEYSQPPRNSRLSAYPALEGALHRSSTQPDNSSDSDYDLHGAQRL
# UniProt P13379, sequence (P13379 24-371 limits assumed, stated change not applied): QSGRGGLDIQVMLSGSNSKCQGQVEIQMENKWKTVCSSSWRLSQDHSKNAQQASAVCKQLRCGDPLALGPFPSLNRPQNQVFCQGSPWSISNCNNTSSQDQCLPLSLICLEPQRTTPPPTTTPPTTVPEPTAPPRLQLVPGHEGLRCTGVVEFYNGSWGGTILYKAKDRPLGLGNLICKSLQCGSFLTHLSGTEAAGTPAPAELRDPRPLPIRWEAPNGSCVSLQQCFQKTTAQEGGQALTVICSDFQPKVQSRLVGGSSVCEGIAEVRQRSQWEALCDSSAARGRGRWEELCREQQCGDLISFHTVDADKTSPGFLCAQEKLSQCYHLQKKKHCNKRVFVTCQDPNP
substance,measurement,setting,value
"Anti-HEL-hIgG1 (antibody against hen egg lysozyme, Biointron Cat. No. B117901)",OD450,[1],0.05 OD450
same,OD450,[2],0.11 OD450
same,OD450,[3],0.11 OD450
same,OD450,[4],0.05 OD450
same,Mean fluorescence intensity of cells,[5],65.9 MFI
same,OD450,[6],0.12 OD450
same,Mean fluorescence intensity of cells,[7],65.9 MFI
same,OD450,[8],0.12 OD450
same,OD450,[9],0.05 OD450
same,Max MFI,[10],93 MFI
same,Mean fluorescence intensity of cells,[11],65.9 MFI
same,OD450,[12],0.05 OD450
same,OD450,[13],0.11 OD450
same,OD450,[14],0.11 OD450
same,Max MFI,[15],62 MFI
same,Mean fluorescence intensity of cells,[15],97 MFI
same,Mean fluorescence intensity of cells,[16],65.9 MFI
same,OD450,[17],0.11 OD450
same,OD450,[18],0.05 OD450
same,OD450,[19],0.05 OD450
same,OD450,[20],0.06 OD450
same,Max MFI,[21],79 MFI
